Measurements reported in paper PMC12104086, “Identification of a multiple DAMP scavenger mimicking the DAMP-binding site of TLR4 to ameliorate lethal sepsis” (Frontiers in Immunology, 2025).

Columns and labels:
[1] = biological target: T1, recombinant human high mobility group box 1 (human, UniProt P09429 1-215); assay: SPR; OpenSPR (Nicoya); OP18 (10 µg/mL in 10 mM acetate pH 5) immobilised on channel 2, channel 1 as reference; analytes eCIRP 31.3-2,000 nM, HMGB1 10-450 nM, αvβ3 integrin 10-100 nM, histone H3 22.5-270 nM in HBST (10 mM HEPES, 150 mM NaCl, 0.005% P20, 5 mM EDTA, pH 7.4); 40 µL/min, 20°C; global fit 1:1; settings: both partners purified
T1 construct: human HMGB1, recombinant, bought; see the vendor's sheet; also called rhHMGB1; HMGB1; source: bought: R&D System (Cat. No. 1690-HMB-050)
T1 sequence (looked up): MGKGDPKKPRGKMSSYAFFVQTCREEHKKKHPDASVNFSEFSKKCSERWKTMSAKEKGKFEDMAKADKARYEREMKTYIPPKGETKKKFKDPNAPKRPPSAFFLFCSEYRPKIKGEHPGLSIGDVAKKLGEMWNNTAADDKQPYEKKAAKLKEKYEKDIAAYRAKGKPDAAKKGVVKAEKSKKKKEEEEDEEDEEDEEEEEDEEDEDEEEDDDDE

[2] = biological target: T2, recombinant mouse cold-inducible RNA-binding protein (mouse, UniProt P60824 1-172); assay: as above; settings: both partners purified
T2 construct: also called rmCIRP; eCIRP
T2 sequence (looked up): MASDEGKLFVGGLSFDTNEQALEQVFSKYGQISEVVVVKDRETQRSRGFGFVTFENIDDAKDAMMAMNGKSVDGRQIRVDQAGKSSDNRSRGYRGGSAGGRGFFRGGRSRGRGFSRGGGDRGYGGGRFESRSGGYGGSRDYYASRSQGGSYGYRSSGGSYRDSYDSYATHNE

binding result [1]: binds | binding result [2]: binds
B1: opsonic peptide 18 (peptide)
peptide: GNFNSSNIMKTCLQNRGD
notes: also called OP18; source: synthetic peptide (GenScript)
